Assay results taken from patent US9958461B2, “Detection of protein to protein interactions” (THE GOVERNING COUNCIL OF THE UNIVERSITY OF TORONTO, priority 2013, dated 2018).

B1: EPS8 (protein, UniProt Q12929 1-822, looked up)
Epidermal growth factor …: MNGHISNHPSSFGMYPSQMNGYGSSPTFSQTDREHGSKTSAKALYEQRKNYARDSVSSVSDISQYRVEHLTTFVLDRKDAMITVDDGIRKLKLLDAKGKVWTQDMILQVDDRAVSLIDLESKNELENFPLNTIQHCQAVMHSCSYDSVLALVCKEPTQNKPDLHLFQCDEVKANLISEDIESAISDSKGGKQKRRPDALRMISNADPSIPPPPRAPAPAPPGTVTQVDVRSRVAAWSAWAADQGDFEKPRQYHEQEETPEMMAARIDRDVQILNHILDDIEFFITKLQKAAEAFSELSKRKKNKKGKRKGPGEGVLTLRAKPPPPDEFLDCFQKFKHGFNLLAKLKSHIQNPSAADLVHFLFTPLNMVVQATGGPELASSVLSPLLNKDTIDFLNYTVNGDERQLWMSLGGTWMKARAEWPKEQFIPPYVPRFRNGWEPPMLNFMGATMEQDLYQLAESVANVAEHQRKQEIKRLSTEHSSVSEYHPADGYAFSSNIYTRGSHLDQGEAAVAFKPTSNRHIDRNYEPLKTQPKKYAKSKYDFVARNNSELSVLKDDILEILDDRKQWWKVRNASGDSGFVPNNILDIVRPPESGLGRADPPYTHTIQKQRMEYGPRPADTPPAPSPPPTPAPVPVPLPPSTPAPVPVSKVPANITRQNSSSSDSGGSIVRDSQRHKQLPVDRRKSQMEEVQDELIHRLTIGRSAAQKKFHVPRQNVPVINITYDSTPEDVKTWLQSKGFNPVTVNSLGVLNGAQLFSLNKDELRTVCPEGARVYSQITVQKAALEDSSGSSELQEIMRRRQEKISAAASDSGVESFDEGSSH
B2: CISH (protein, UniProt Q9NSE2 1-258, looked up)
Cytokine-inducible …: MVLCVQGPRPLLAVERTGQRPLWAPSLELPKPVMQPLPAGAFLEEVAEGTPAQTESEPKVLDPEEDLLCIAKTFSYLRESGWYWGSITASEARQHLQKMPEGTFLVRDSTHPSYLFTLSVKTTRGPTNVRIEYADSSFRLDSNCLSRPRILAFPDVVSLVQHYVASCTADTRSDSPDPAPTPALPMPKEDAPSDPALPAPPPATAVHLKLVQPFVRRSSARSLQHLCRLVINRLVADVDCLPLPRRMADYLRQYPFQL
B3: PDCD6IP (protein, UniProt Q8WUM4 2-868, looked up)
Programmed cell death …: ATFISVQLKKTSEVDLAKPLVKFIQQTYPSGGEEQAQYCRAAEELSKLRRAAVGRPLDKHEGALETLLRYYDQICSIEPKFPFSENQICLTFTWKDAFDKGSLFGGSVKLALASLGYEKSCVLFNCAALASQIAAEQNLDNDEGLKIAAKHYQFASGAFLHIKETVLSALSREPTVDISPDTVGTLSLIMLAQAQEVFFLKATRDKMKDAIIAKLANQAADYFGDAFKQCQYKDTLPKEVFPVLAAKHCIMQANAEYHQSILAKQQKKFGEEIARLQHAAELIKTVASRYDEYVNVKDFSDKINRALAAAKKDNDFIYHDRVPDLKDLDPIGKATLVKSTPVNVPISQKFTDLFEKMVPVSVQQSLAAYNQRKADLVNRSIAQMREATTLANGVLASLNLPAAIEDVSGDTVPQSILTKSRSVIEQGGIQTVDQLIKELPELLQRNREILDESLRLLDEEEATDNDLRAKFKERWQRTPSNELYKPLRAEGTNFRTVLDKAVQADGQVKECYQSHRDTIVLLCKPEPELNAAIPSANPAKTMQGSEVVNVLKSLLSNLDEVKKEREGLENDLKSVNFDMTSKFLTALAQDGVINEEALSVTELDRVYGGLTTKVQESLKKQEGLLKNIQVSHQEFSKMKQSNNEANLREEVLKNLATAYDNFVELVANLKEGTKFYNELTEILVRFQNKCSDIVFARKTERDELLKDLQQSIAREPSAPSIPTPAYQSSPAGGHAPTPPTPAPRTMPPTKPQPPARPPPPVLPANRAPSATAPSPVGAGTAAPAPSQTPGSAPPPQAQGPPYPTYPGYPGYCQMPMPMGYNPYAYGQYNMPYPPVYHQSPGQAPYPGPQQPSYPFPQPPQQSYYPQQ
B4: CDC25C (protein, UniProt P30307 2-473, looked up)
M-phase inducer phosphatase 3: STELFSSTREEGSSGSGPSFRSNQRKMLNLLLERDTSFTVCPDVPRTPVGKFLGDSANLSILSGGTPKRCLDLSNLSSGEITATQLTTSADLDETGHLDSSGLQEVHLAGMNHDQHLMKCSPAQLLCSTPNGLDRGHRKRDAMCSSSANKENDNGNLVDSEMKYLGSPITTVPKLDKNPNLGEDQAEEISDELMEFSLKDQEAKVSRSGLYRSPSMPENLNRPRLKQVEKFKDNTIPDKVKKKYFSGQGKLRKGLCLKKTVSLCDITITQMLEEDSNQGHLIGDFSKVCALPTVSGKHQDLKYVNPETVAALLSGKFQGLIEKFYVIDCRYPYEYLGGHIQGALNLYSQEELFNFFLKKPIVPLDTQKRIIIVFHCEFSSERGPRMCRCLREEDRSLNQYPALYYPELYILKGGYRDFFPEYMELCEPQSYCPMHHQDHKTELLRCRSQSKVQEGERQLREQIALLVKDMSP
B5: VAV1 (protein, UniProt P15498 1-845, looked up)
Proto-oncogene vav: MELWRQCTHWLIQCRVLPPSHRVTWDGAQVCELAQALRDGVLLCQLLNNLLPHAINLREVNLRPQMSQFLCLKNIRTFLSTCCEKFGLKRSELFEAFDLFDVQDFGKVIYTLSALSWTPIAQNRGIMPFPTEEESVGDEDIYSGLSDQIDDTVEEDEDLYDCVENEEAEGDEIYEDLMRSEPVSMPPKMTEYDKRCCCLREIQQTEEKYTDTLGSIQQHFLKPLQRFLKPQDIEIIFINIEDLLRVHTHFLKEMKEALGTPGAANLYQVFIKYKERFLVYGRYCSQVESASKHLDRVAAAREDVQMKLEECSQRANNGRFTLRDLLMVPMQRVLKYHLLLQELVKHTQEAMEKENLRLALDAMRDLAQCVNEVKRDNETLRQITNFQLSIENLDQSLAHYGRPKIDGELKITSVERRSKMDRYAFLLDKALLICKRRGDSYDLKDFVNLHSFQVRDDSSGDRDNKKWSHMFLLIEDQGAQGYELFFKTRELKKKWMEQFEMAISNIYPENATANGHDFQMFSFEETTSCKACQMLLRGTFYQGYRCHRCRASAHKECLGRVPPCGRHGQDFPGTMKKDKLHRRAQDKKRNELGLPKMEVFQEYYGLPPPPGAIGPFLRLNPGDIVELTKAEAEQNWWEGRNTSTNEIGWFPCNRVKPYVHGPPQDLSVHLWYAGPMERAGAESILANRSDGTFLVRQRVKDAAEFAISIKYNVEVKHIKIMTAEGLYRITEKKAFRGLTELVEFYQQNSLKDCFKSLDTTLQFPFKEPEKRTISRPAVGSTKYFGTAKARYDFCARDRSELSLKEGDIIKILNKKGQQGWWRGEIYGRVGWFPANYVEEDYSEYC
B6: HDAC7 (protein, UniProt Q8WUI4 1-952, looked up)
Histone deacetylase 7: MDLRVGQRPPVEPPPEPTLLALQRPQRLHHHLFLAGLQQQRSVEPMRLSMDTPMPELQVGPQEQELRQLLHKDKSKRSAVASSVVKQKLAEVILKKQQAALERTVHPNSPGIPYRTLEPLETEGATRSMLSSFLPPVPSLPSDPPEHFPLRKTVSEPNLKLRYKPKKSLERRKNPLLRKESAPPSLRRRPAETLGDSSPSSSSTPASGCSSPNDSEHGPNPILGSEALLGQRLRLQETSVAPFALPTVSLLPAITLGLPAPARADSDRRTHPTLGPRGPILGSPHTPLFLPHGLEPEAGGTLPSRLQPILLLDPSGSHAPLLTVPGLGPLPFHFAQSLMTTERLSGSGLHWPLSRTRSEPLPPSATAPPPPGPMQPRLEQLKTHVQVIKRSAKPSEKPRLRQIPSAEDLETDGGGPGQVVDDGLEHRELGHGQPEARGPAPLQQHPQVLLWEQQRLAGRLPRGSTGDTVLLPLAQGGHRPLSRAQSSPAAPASLSAPEPASQARVLSSSETPARTLPFTTGLIYDSVMLKHQCSCGDNSRHPEHAGRIQSIWSRLQERGLRSQCECLRGRKASLEELQSVHSERHVLLYGTNPLSRLKLDNGKLAGLLAQRMFVMLPCGGVGVDTDTIWNELHSSNAARWAAGSVTDLAFKVASRELKNGFAVVRPPGHHADHSTAMGFCFFNSVAIACRQLQQQSKASKILIVDWDVHHGNGTQQTFYQDPSVLYISLHRHDDGNFFPGSGAVDEVGAGSGEGFNVNVAWAGGLDPPMGDPEYLAAFRIVVMPIAREFSPDLVLVSAGFDAAEGHPAPLGGYHVSAKCFGYMTQQLMNLAGGAVVLALEGGHDLTAICDASEACVAALLGNRVDPLSEEGWKQKPNLNAIRSLEAVIRVHSKYWGCMQRLASCPDSWVPRVPGADKEEVEAVTALASLSVGILAEDRPSEQLVEEEEPMNL
B7: PAK1 (protein, UniProt Q13153 2-545, looked up)
Serine/threonine-protein …: SNNGLDIQDKPPAPPMRNTSTMIGAGSKDAGTLNHGSKPLPPNPEEKKKKDRFYRSILPGDKTNKKKEKERPEISLPSDFEHTIHVGFDAVTGEFTGMPEQWARLLQTSNITKSEQKKNPQAVLDVLEFYNSKKTSNSQKYMSFTDKSAEDYNSSNALNVKAVSETPAVPPVSEDEDDDDDDATPPPVIAPRPEHTKSVYTRSVIEPLPVTPTRDVATSPISPTENNTTPPDALTRNTEKQKKKPKMSDEEILEKLRSIVSVGDPKKKYTRFEKIGQGASGTVYTAMDVATGQEVAIKQMNLQQQPKKELIINEILVMRENKNPNIVNYLDSYLVGDELWVVMEYLAGGSLTDVVTETCMDEGQIAAVCRECLQALEFLHSNQVIHRDIKSDNILLGMDGSVKLTDFGFCAQITPEQSKRSTMVGTPYWMAPEVVTRKAYGPKVDIWSLGIMAIEMIEGEPPYLNENPLRALYLIATNGTPELQNPEKLSAIFRDFLNRCLEMDVEKRGSAKELLQHQFLKIAKPLSSLTPLIAAAKEATKNNH
B8: MAP3K3 (protein, UniProt Q99759 1-626, looked up)
Mitogen-activated protein …: MDEQEALNSIMNDLVALQMNRRHRMPGYETMKNKDTGHSNRQSDVRIKFEHNGERRIIAFSRPVKYEDVEHKVTTVFGQPLDLHYMNNELSILLKNQDDLDKAIDILDRSSSMKSLRILLLSQDRNHNSSSPHSGVSRQVRIKASQSAGDINTIYQPPEPRSRHLSVSSQNPGRSSPPPGYVPERQQHIARQGSYTSINSEGEFIPETSEQCMLDPLSSAENSLSGSCQSLDRSADSPSFRKSRMSRAQSFPDNRQEYSDRETQLYDKGVKGGTYPRRYHVSVHHKDYSDGRRTFPRIRRHQGNLFTLVPSSRSLSTNGENMGLAVQYLDPRGRLRSADSENALSVQERNVPTKSPSAPINWRRGKLLGQGAFGRVYLCYDVDTGRELASKQVQFDPDSPETSKEVSALECEIQLLKNLQHERIVQYYGCLRDRAEKTLTIFMEYMPGGSVKDQLKAYGALTESVTRKYTRQILEGMSYLHSNMIVHRDIKGANILRDSAGNVKLGDFGASKRLQTICMSGTGMRSVTGTPYWMSPEVISGEGYGRKADVWSLGCTVVEMLTEKPPWAEYEAMAAIFKIATQPTNPQLPSHISEHGRDFLRRIFVEARQRPSAEELLTHHFAQLMY

Each molecule was assayed against T1, EGFR-Wt (Homo sapiens, UniProt P00533) (assay: MaMTH EGFR-interactor screen, lentiviral preys against EGFR-wildtype bait (interaction score)). Conditions: MaMTH interaction score of prey with EGFR-Wt bait, mean.
T1 construct: with the advantage of testing full-length integral membrane proteins; (GGGGS)2 linker-Cub (human ubiquitin aa 35-76)-GAL4(1-147)-mNFkB(364-550) (C); expressed in transfected cells
Assay type: cell-based
Procedure, shortened: (§1)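 Interaction score is the luciferase fold-change versus averaged negative controls (Fabp5, Pex19, Pex7, GABBR2), with >1 called interacting. Luciferase was measured 24 h after triplicate bait transfection. This followed single-copy prey transduction (MOI ~0.3-0.4) of GAL4UAS-luciferase HEK293T cells and ≥48 h puromycin selection.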

Molecule | EGFR-Wt mean
B1 | 2.62
B2 | 1.29
B3 | 7.39
B4 | 2.12
B5 | 1.45
B6 | 2.37
B7 | 1.50
B8 | 2.01

The molecules below were run on EGFR-Wt in the same assay as above. Conditions: ratio of EGFR-Wt mean to EGFR-L858R mean interaction score.
Assay type: cell-based, human
Procedure, shortened: as §1

Molecule | Wt/L858R
B1 | 0.47
B2 | 0.49
B3 | 0.53
B4 | 0.54
B5 | 0.54
B6 | 0.55
B7 | 0.55
B8 | 0.58

The molecules below were run against T2, EGFR-L858R (Homo sapiens, UniProt P00533, L858R) (assay: MaMTH EGFR-interactor screen, lentiviral preys against EGFR-L858R bait (interaction score)). Conditions: MaMTH interaction score of prey with EGFR-L858R bait.
T2 construct: with the advantage of testing full-length integral membrane proteins; (GGGGS)2 linker-Cub (human ubiquitin aa 35-76)-GAL4(1-147)-mNFkB(364-550) (C); expressed in transfected cells
Assay type: cell-based
Procedure, shortened: as §1

Molecule | EGFR-L858R mean
B1 | 5.58
B2 | 2.66
B3 | 14.05
B4 | 3.94
B5 | 2.68
B6 | 4.35
B7 | 2.70
B8 | 3.46
